Source: the supplement of paper PMC10567573

B1: SCNN1D (parent)
chain: FLGHHSFSVRPGTEATISIREDEV

Variants of: B1
Experiment: protein stability index of a GFP-peptide fusion (GPS, HEK-293T) (PSI 1-6); higher = more stable
Details: c terminus: a fixed tail appended
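Also: lentivirally expressed fusions sorted by FACS into six bins by GFP to DsRed ratio, PSI derived from sequencing read proportions per bin multiplied by bin number.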

Variant | protein stability index
FLGHHSFSVRPGTEATKSIREDEV [I17K] | 2.32
FLGHHSFSVRPGTEATFSIREDEV [I17F] | 1.36
FLGHHSFSVRPGTEATWSIREDEV [I17W] | 1.58
FLGHHSFSVRPGTEATYSIREDEV [I17Y] | 2.79
FLGHHSFSVRPGTEATPSIREDEV [I17P] | 2.19
FLGHHSFSVRPGTEATMSIREDEV [I17M] | 1.75
FLGHHSFSVRPGTEATCSIREDEV [I17C] | 1.96
FLGHHSFSVRPGTEATQSIREDEV [I17Q] | 2.54
FLGHHSFSVRPGTEATHSIREDEV [I17H] | 2.23
FLGHHSFSVRPGTEATGSIREDEV [I17G] | 2.38
FLGHHSFSVRPGTEATASIREDEV [I17A] | 2.44
FLGHHSFSVRPGTEATSSIREDEV [I17S] | 1.66
FLGHHSFSVRPGTEATDSIREDEV [I17D] | 2.12
FLGHHSFSVRPGTEATLSIREDEV [I17L] | 1.62
FLGHHSFSVRPGTEATRSIREDEV [I17R] | 2.07
FLGHHSFSVRPGTEATTSIREDEV [I17T] | 2.24
FLGHHSFSVRPGTEATNSIREDEV [I17N] | 1.68
FLGHHSFSVRPGTEATESIREDEV [I17E] | 2.1
FLGHHSFSVRPGTEATISEREDEV [I19E] | 1.71
FLGHHSFSVRPGTEATISDREDEV [I19D] | 1.92
FLGHHSFSVRPGTEATISYREDEV [I19Y] | 1.52
FLGHHSFSVRPGTEATISSREDEV [I19S] | 2.13
FLGHHSFSVRPGTEATISLREDEV [I19L] | 2.16
FLGHHSFSVRPGTEATISHREDEV [I19H] | 1.9

Variant | protein stability index
FLGHHSFSVRPGTEATISMREDEV [I19M] | 1.55
FLGHHSFSVRPGTEATISNREDEV [I19N] | 2.42
FLGHHSFSVRPGTEATISKREDEV [I19K] | 2.14
FLGHHSFSVRPGTEATISCREDEV [I19C] | 1.58
FLGHHSFSVRPGTEATISPREDEV [I19P] | 1.89
FLGHHSFSVRPGTEATISTREDEV [I19T] | 1.74
FLGHHSFSVRPGTEATISFREDEV [I19F] | 2.21
FLGHHSFSVRPGTEATISWREDEV [I19W] | 1.32
FLGHHSFSVRPGTEATISGREDEV [I19G] | 2.6
FLGHHSFSVRPGTEATISVREDEV [I19V] | 2.74
FLGHHSFSVRPGTEATISRREDEV [I19R] | 2.06
FLGHHSFSVRPGTEATISQREDEV [I19Q] | 1.99
FLGHHSFSVRPGTEATISAREDEV [I19A] | 2.68
FLGHHSFSVRPGTEAWISIREDEV [T16W] | 1.4
FLGHHSFSVRPGTEAVISIREDEV [T16V] | 2.25
FLGHHSFSVRPGTEAGISIREDEV [T16G] | 2.1
FLGHHSFSVRPGTEAIISIREDEV [T16I] | 2.29
FLGHHSFSVRPGTEACISIREDEV [T16C] | 1.29
FLGHHSFSVRPGTEAYISIREDEV [T16Y] | 2.23
FLGHHSFSVRPGTEAQISIREDEV [T16Q] | 2.8
FLGHHSFSVRPGTEASISIREDEV [T16S] | 2.57
FLGHHSFSVRPGTEAEISIREDEV [T16E] | 1.62
FLGHHSFSVRPGTEARISIREDEV [T16R] | 2.46
FLGHHSFSVRPGTEAHISIREDEV [T16H] | 1.87

Variant | protein stability index
FLGHHSFSVRPGTEAAISIREDEV [T16A] | 2.37
FLGHHSFSVRPGTEAMISIREDEV [T16M] | 2.62
FLGHHSFSVRPGTEADISIREDEV [T16D] | 3.29
FLGHHSFSVRPGTEALISIREDEV [T16L] | 1.49
FLGHHSFSVRPGTEANISIREDEV [T16N] | 2.05
FLGHHSFSVRPGTEAKISIREDEV [T16K] | 1.75
FLGHHSFSVRPGTEAFISIREDEV [T16F] | 2.04
FLGHHSFSVRPGTEAPISIREDEV [T16P] | 1.85
FLGHHSFSVRPGTEFTISIREDEV [A15F] | 2.62
FLGHHSFSVRPGTEQTISIREDEV [A15Q] | 1.96
FLGHHSFSVRPGTERTISIREDEV [A15R] | 1.88
FLGHHSFSVRPGTEGTISIREDEV [A15G] | 2.01
FLGHHSFSVRPGTEWTISIREDEV [A15W] | 3.05
FLGHHSFSVRPGTEETISIREDEV [A15E] | 1.93
FLGHHSFSVRPGTEPTISIREDEV [A15P] | 2.04
FLGHHSFSVRPGTETTISIREDEV [A15T] | 2.31
FLGHHSFSVRPGTEHTISIREDEV [A15H] | 1.67
FLGHHSFSVRPGTEDTISIREDEV [A15D] | 2.08
FLGHHSFSVRPGTENTISIREDEV [A15N] | 2
FLGHHSFSVRPGTELTISIREDEV [A15L] | 2.66
FLGHHSFSVRPGTECTISIREDEV [A15C] | 2.34
FLGHHSFSVRPGTEITISIREDEV [A15I] | 1.95
FLGHHSFSVRPGTEMTISIREDEV [A15M] | 1.58
FLGHHSFSVRPGTEVTISIREDEV [A15V] | 1.47

Variant | protein stability index
FLGHHSFSVRPGTESTISIREDEV [A15S] | 2.63
FLGHHSFSVRPGTEKTISIREDEV [A15K] | 1.91
FLGHHSFSVRPGTEYTISIREDEV [A15Y] | 1.71
FLGHHSFSVRPGTEATISIREDFV [E23F] | 2.45
FLGHHSFSVRPGTEATISIREDWV [E23W] | 3.12
FLGHHSFSVRPGTEATISIREDYV [E23Y] | 2.54
FLGHHSFSVRPGTEATISIREDNV [E23N] | 2.1
FLGHHSFSVRPGTEATISIREDRV [E23R] | 1.73
FLGHHSFSVRPGTEATISIREDQV [E23Q] | 1.65
FLGHHSFSVRPGTEATISIREDCV [E23C] | 1.88
FLGHHSFSVRPGTEATISIREDTV [E23T] | 1.41
FLGHHSFSVRPGTEATISIREDIV [E23I] | 2.23
FLGHHSFSVRPGTEATISIREDMV [E23M] | 1.91
FLGHHSFSVRPGTEATISIREDHV [E23H] | 2.32
FLGHHSFSVRPGTEATISIREDAV [E23A] | 1.96
FLGHHSFSVRPGTEATISIREDKV [E23K] | 2.38
FLGHHSFSVRPGTEATISIREDDV [E23D] | 2.12
FLGHHSFSVRPGTEATISIREDGV [E23G] | 2.29
FLGHHSFSVRPGTEATISIREDPV [E23P] | 1.99
FLGHHSFSVRPGTEATISIREDVV [E23V] | 2.05
FLGHHSFSVRPGTEATISIREDLV [E23L] | 1.66
FLGHHSFSVRPGTEATISIREDSV [E23S] | 1.06
